Measured values from patent US20260109773A1 (HARPOON THERAPEUTICS, published 2026).

T1: human BCMA protein (human, UniProt Q02223 1-54, limits assumed)
T1 sequence: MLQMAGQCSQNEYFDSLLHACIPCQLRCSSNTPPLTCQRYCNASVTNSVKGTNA

B1: 253BH10 trispecific protein (other, not shown: large carriers)
chain: QVQLVESGGGLVQPGESLRLSCAASTNIFSISPMGWYRQAPGKQRELVAAIHGFSTLYADSVKGRFTISRDNAKNTIYLQMNSLKPEDTAVYYCNKVPWGDYHPRNVYWGQGTQVTVSS
notes: also called molecule with the parental CDRs
B2: cynomolgus CD3ε-Fc (Fc fusion, UniProt Q95LI5 22-117, looked up)
chain: QDGNEEMGSITQTPYQVSISGTTVILTCSQHLGSEAQWQHNGKNKEDSGDRLFLPEFSEMEQSGYYVCYPRGSNPEDASHHLYLKARVCENCMEMD
notes: loaded on streptavidin tips; not shown: Fc part
B3: cynomolgus serum albumin (other, UniProt A2V9Z4 25-608, looked up)
chain: DTHKSEVAHRFKDLGEEHFKGLVLVAFSQYLQQCPFEEHVKLVNEVTEFAKTCVADESAENCDKSLHTLFGDKLCTVATLRETYGEMADCCAKQEPERNECFLQHKDDNPNLPPLVRPEVDVMCTAFHDNEATFLKKYLYEVARRHPYFYAPELLFFAARYKAAFAECCQAADKAACLLPKLDELRDEGKASSAKQRLKCASLQKFGDRAFKAWAVARLSQKFPKAEFAEVSKLVTDLTKVHTECCHGDLLECADDRADLAKYMCENQDSISSKLKECCDKPLLEKSHCLAEVENDEMPADLPSLAADYVESKDVCKNYAEAKDVFLGMFLYEYARRHPDYSVMLLLRLAKAYEATLEKCCAAADPHECYAKVFDEFQPLVEEPQNLVKQNCELFEQLGEYKFQNALLVRYTKKVPQVSTPTLVEVSRNLGKVGAKCCKLPEAKRMPCAEDYLSVVLNRLCVLHEKTPVSEKVTKCCTESLVNRRPCFSALELDEAYVPKAFNAETFTFHADMCTLSEKEKQVKKQTALVELVKHKPKATKEQLKGVMDNFAAFVEKCCKADDKEACFAEEGPKFVAASQAALA
notes: loaded on streptavidin tips
B4: human BCMA on BCMA-expressing cell lines (receptor)
chain: MLQMAGQCSQNEYFDSLLHACIPCQLRCSSNTPPLTCQRYCNASVTNSVKGTNAILWTCLGLSLIISLAVFVLMFLLRKINSEPLKDEFKNTGSGLLGMANIDLEKSRTGDEIILPRGLEYTVEECTCEDCIKSKPKVDSDHCFPLPAMEEGATILVTTKTNDYCKSLPAALSATEIEKSISAR
notes: BCMA as expressed by human tumour cell lines; also called BCMA expressing cells (EJM, Jeko1, MOLP-8, OPM-2, NCI-H929, RPMI-8226)
B5: human CD3ε-Fc (Fc fusion, UniProt P07766 23-126, looked up)
chain: DGNEEMGGITQTPYKVSISGTTVILTCPQYPGSEILWQHNDKNIGGDEDDKNIGSDEDHLSLKEFSELEQSGYYVCYPRGSKPEDANFYLYLRARVCENCMEMD
notes: as for B2

What was measured:
[1] = target: B4; test: cell-based or functional assay
human BCMA protein = target: T1, human BCMA protein; test: affinity to human BCMA protein; method not stated
02B05 TriTAC [2] = target: T2, 02B05 TriTAC; test: Octet; 2.5 nM cynomolgus CD3ε-Fc on streptavidin tips; 15 mg/ml HSA; n=2
T2 construct: TriTAC trispecific; His6 in entry; also called exemplary BCMA targeting trispecific protein (02B05)
Experimental: (§1) The affinities were measured using an Octet instrument. For these measurements, streptavidin tips were first loaded with 2.5 nM human BCMA-Fc, 2.5 nM cynomolgous BCMA-Fc, 2.5 nM human CD3ε-Fc, 2.5 nM cynomolgus CD3ε-Fc, 50 nM human serum albumin (HSA), 50 nM cynomolgus serum albumin, or 50 nM mouse serum albumin. […] Average calculated KD values from these studies are provided in Table 4 (n indicates the number of independent measurements, n/d indicates no binding detected under the conditions tested).

02B05 TriTAC [3] = target: T2, 02B05 TriTAC; test: Octet; 50 nM cynomolgus serum albumin on streptavidin tips; n=1
Experimental: as §1

02B05 TriTAC [4] = target: T2, 02B05 TriTAC; test: flow cytometry on NCI-H929 cells (BCMA RNA FPKM 1931); bound protein detected with an Alexa Fluor 647 antibody against the anti-albumin domain; negative control: GFP trispecific protein
02B05 TriTAC [5] = target: T2, 02B05 TriTAC; test: Octet; 2.5 nM human CD3ε-Fc on streptavidin tips; 15 mg/ml HSA; n=2
Experimental: as §1

T2 sequence (chain, as listed by the source): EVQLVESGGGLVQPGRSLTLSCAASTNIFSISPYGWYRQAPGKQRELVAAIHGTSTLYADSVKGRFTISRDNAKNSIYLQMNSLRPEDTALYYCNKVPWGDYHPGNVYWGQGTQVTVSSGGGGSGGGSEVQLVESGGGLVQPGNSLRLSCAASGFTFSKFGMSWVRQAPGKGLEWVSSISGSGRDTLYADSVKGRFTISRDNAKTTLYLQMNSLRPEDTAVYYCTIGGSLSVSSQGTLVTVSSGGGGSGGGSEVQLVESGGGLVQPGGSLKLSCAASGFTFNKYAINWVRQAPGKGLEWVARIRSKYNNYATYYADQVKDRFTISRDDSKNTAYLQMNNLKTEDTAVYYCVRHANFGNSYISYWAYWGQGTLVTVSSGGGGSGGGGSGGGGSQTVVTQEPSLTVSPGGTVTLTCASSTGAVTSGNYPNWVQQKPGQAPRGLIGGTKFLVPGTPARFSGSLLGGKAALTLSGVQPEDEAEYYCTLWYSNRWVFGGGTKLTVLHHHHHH

For B1, the “TDCC EC50, EJM cells” value [1] was 0.0529 nM and the Kd (human BCMA protein) was 27.7 nM.

B2 gave a Kd (02B05 TriTAC [2]) of 7.8 nM.

For B3, the Kd (02B05 TriTAC [3]) was 7.5 nM.

B4: binds (02B05 TriTAC [4]).

With B5 the Kd (02B05 TriTAC [5]) was 8 nM.
